Kd data for 16 sequences are collected here from the Immune Epitope Database (IEDB).

The term Kd denotes the free concentration of one partner at which half of the binding sites on the other are occupied at equilibrium, for simple one-to-one binding.

The target in assay [1] is HLA-B*15:01. Put plainly: IEDB peptide-MHC binding, purified MHC/competitive/radioactivity; filed as Kd, often an IC50 or EC50 that approximates it; ≥ and ≤ were set here for values at or beyond the usual limits of such assays.
Assay [2] deals with HLA-A*23:01. Described as above.
Assay [3] addresses HLA-A*24:02. Described as above.
The target in assay [4] is HLA-B*44:03. Described as above.
For assay [5], the target named is HLA-B*44:02. Described as above.
The target of assay [6] is HLA-B*40:01. The description is as above.
Assay [7] concerns the target HLA-A*32:01. The description is as above. The conditions noted are these: source organism: Dengue virus 2 Jamaica/1409/1983.
For assay [8], the target named is HLA-B*18:01. The experiment in a line: IEDB peptide-MHC binding, purified MHC/direct/fluorescence; filed as Kd, often an IC50 or EC50 that approximates it; ≥ and ≤ were set here for values at or beyond the usual limits of such assays. Conditions: source organism: Mammarenavirus lassaense.
Assay [9] addresses HLA-B*40:01. Described as above.
For assay [10], the target named is HLA-A*01:01. Put plainly: IEDB peptide-MHC binding, purified MHC/competitive/radioactivity; filed as Kd, often an IC50 or EC50 that approximates it; ≥ and ≤ were set here for values at or beyond the usual limits of such assays.
For assay [11], the target named is HLA-A*26:01. Described as above.
For assay [12], the target named is HLA-A*03:01. Described as above.
Assay [13] concerns the target HLA-A*31:01. The description is as above.
Assay [14] deals with HLA-A*30:02. The description is as above.
Assay [15] addresses HLA-A*68:01. The description is as above.
In assay [16] the target is HLA-A*29:02. The description is as above.
The target in assay [17] is HLA-A*11:01. The description is as above.
Assay [18] addresses HLA-A*33:01. Described as above.
For assay [19], the target named is HLA-B*15:01. Put plainly: IEDB peptide-MHC binding, purified MHC/direct/fluorescence; filed as Kd, often an IC50 or EC50 that approximates it; ≥ and ≤ were set here for values at or beyond the usual limits of such assays. Conditions: source organism: SARS-CoV1.
Assay [20] has as its target HLA-A*11:01. The assay is described as above. Conditions: source organism: SARS-CoV1.
The mark [21] stands for this setting: source organism: Dengue virus 1 Brazil/97-11/1997.
[22] abbreviates: source organism: Dengue virus 2 Jamaica/1409/1983.
The mark [23] stands for this setting: source organism: Dengue virus 3 Martinique/1243/1999.
The mark [24] stands for this setting: source organism: SARS coronavirus Tor2.
[25] abbreviates: source organism: Dengue virus 4 Philippines/H241/1956.
Setting [26] is: source organism: Triticum aestivum.

As for FQYSDRRWCF, the results for the Kd in [1] (setting [21]), in [2] (setting [21]) and in assay [3] (setting [21]) were 0.00388 µM, 0.272 µM and 2.48 µM, respectively.
As for SENEVKLTI, the Kd stood at 0.0141 µM in [4] (setting [22]), 0.000814 µM in assay [5] (setting [22]) and 0.373 µM in assay [6] (setting [22]).
Regarding RLKGESRKTF, the Kd in assay [1] (setting [23]) amounted to 0.3 µM.
Consider TELKYSWKTW, for which the dissociation constant (Kd) in assay [4] (setting [22]) stood at 0.0239 µM; in assay [7], 4.27 µM; in assay [5] (setting [22]) it was 0.0379 µM.
Take WENNIKLTVV: the Kd in assay [6] (setting [23]) came out at 0.443 µM.
As for MEGLKLLSL, the results for the Kd in [8] and in [9] (source organism: Mammarenavirus lassaense) were 0.222 µM and 0.16 µM, respectively.
On to SAAAYFVGY, for which the Kd in [10] (setting [24]) is 0.311 µM; in [11] (setting [24]), 0.0855 µM; in [12] (setting [24]), 0.0897 µM; in assay [13] (setting [24]), no less than 26.3 µM; in [14] (setting [24]), 0.0177 µM; in [15] (setting [24]), 0.106 µM. In addition, the Kd was 0.0655 µM in assay [16] (setting [24]); 0.0328 µM in [17] (setting [24]); 6.1 µM in assay [2] (setting [24]); no less than 21.5 µM in assay [18] (setting [24]); 3.87 µM in assay [3] (setting [24]).
For the sequence TEIASLPTY, the results for the Kd in [4] (setting [25]) and in [5] (setting [25]) were 0.0185 µM and 0.013 µM, respectively.
For the sequence EENMDVEIW, the Kd in assay [4] (setting [21]) came out at 0.123 µM; in assay [5] (setting [21]), 0.0828 µM.
With LQSLENVAY, the Kd was no less than 42.3 µM in [10] (setting [24]); no less than 81.5 µM in assay [11] (setting [24]); 0.617 µM in assay [14] (setting [24]); 6.67 µM in assay [16] (setting [24]); no less than 77.8 µM in assay [2] (setting [24]); no less than 77.6 µM in assay [3] (setting [24]). The figures for the Kd in assay [19] and in assay [20] were 0.161 µM and no less than 44.7 µM, respectively.
In the case of KSQVLQQSTY, the Kd is 0.678 µM in [10] (setting [26]); no less than 102 µM in assay [11] (setting [26]); no less than 21.7 µM in assay [12] (setting [26]); no less than 47.2 µM in [13] (setting [26]); 0.26 µM in [14] (setting [26]); no less than 70.2 µM in assay [15] (setting [26]). For the same sequence, the Kd in [16] (setting [26]) is 12 µM; in assay [17] (setting [26]) it was no less than 22.1 µM; in [2] (setting [26]) it was no less than 39 µM; in assay [18] (setting [26]), no less than 70 µM; in assay [3] (setting [26]) it was no less than 70.3 µM.
With MERFNCSSF, the equilibrium dissociation constant (Kd) in assay [1] (source organism: Vaccinia virus Copenhagen) came to 0.00162 µM.
For AYLRKHFSM, the Kd in assay [10] (setting [24]) was no less than 78.1 µM; in assay [11] (setting [24]), no less than 77.9 µM; in [14] (setting [24]), no less than 75 µM; in [16] (setting [24]), 6.29 µM; in [2] (setting [24]) it was no less than 24.4 µM; in [3] (setting [24]), no less than 83.3 µM.
For AEDMLNPNY, the Kd in [10] (setting [24]) is no less than 87.7 µM; in assay [11] (setting [24]), no less than 86.9 µM; in assay [14] (setting [24]) it was 12.9 µM; in [16] (setting [24]), 3.8 µM; in [2] (setting [24]), no less than 77.8 µM; in assay [3] (setting [24]) it was no less than 77.6 µM. Further, in assay [9] (source organism: SARS-CoV1), the Kd stood at 4.39 µM.
On to ERRYVNVHF, for which the Kd in assay [1] (source organism: Vaccinia virus WR) turned out to be 7.38 µM.
On to LSFKELLVY, for which the Kd amounted to 0.0853 µM in assay [10] (setting [24]); 10.9 µM in [11] (setting [24]); 0.0508 µM in assay [14] (setting [24]); 0.00155 µM in [16] (setting [24]); 2.49 µM in assay [2] (setting [24]); 9.23 µM in assay [3] (setting [24]).
